Source: patent US20230235013A1 (MABSOLVE, published 2023)
Substitutions are numbered along the chain they refer to. Names may count otherwise.

B1: anti-CD20 (rituximab) human IgG1 L234Q/L235S/G236R/M252Y/S254T/T256E (antibody)
heavy: QVQLQQPGAELVKPGASVKMSCKASGYTFTSYNMHWVKQTPGRGLEWIGAIYPGNGDTSYNQKFKGKATLTADKSSSTAYMQLSSLTSEDSAVYYCARSTYYGGDWYFNVWGAGTTVTVSSASTKGPSVFPLAPSSKSTSGGTAALGCLVKDYFPEPVTVSWNSGALTSGVHTFPAVLQSSGLYSLSSVVTVPSSSLGTQTYICNVNHKPSNTKVDKKVEPKSCDKTHTCPPCPAPEQSRGPSVFLFPPKPKDTLYITREPEVTCVVVDVSHEDPEVKFNWYVDGVEVHNAKTKPREEQYNSTYRVVSVLTVLHQDWLNGKEYKCKVSNKALPAPIEKTISKAKGQPREPQVYTLPPSRDELTKNQVSLTCLVKGFYPSDIAVEWESNGQPENNYKTTPPVLDSDGSFFLYSKLTVDKSRWQQGNVFSCSVMHEALHNHYTQKSLSLSPGK
light: QIVLSQSPAILSASPGEKVTMTCRASSSVSYIHWFQQKPGSSPKPWIYATSNLASGVPVRFSGSGSGTSYSLTISRVEAEDAATYYCQQWTSNPPTFGGGTKLEIKRTVAAPSVFIFPPSDEQLKSGTASVVCLLNNFYPREAKVQWKVDNALQSGNSQESVTEQDSKDSTYSLSSTLTLSKADYEKHKVYACEVTHQGLSSPVTKSFNRGEC
notes: EU numbering; also called 10.145; copies: 2 + 2
B2: anti-CD20 (rituximab variable regions) human IgG4 L234Q/L235S/G236R (with S228P) (antibody)
heavy: QVQLQQPGAELVKPGASVKMSCKASGYTFTSYNMHWVKQTPGRGLEWIGAIYPGNGDTSYNQKFKGKATLTADKSSSTAYMQLSSLTSEDSAVYYCARSTYYGGDWYFNVWGAGTTVTVSSASTKGPSVFPLAPCSRSTSESTAALGCLVKDYFPEPVTVSWNSGALTSGVHTFPAVLQSSGLYSLSSVVTVPSSSLGTKTYTCNVDHKPSNTKVDKRVESKYGPPCPPCPAPEQSRGPSVFLFPPKPKDTLMISRTPEVTCVVVDVSQEDPEVQFNWYVDGVEVHNAKTKPREEQFNSTYRVVSVLTVLHQDWLNGKEYKCKVSNKGLPSSIEKTISKAKGQPREPQVYTLPPSQEEMTKNQVSLTCLVKGFYPSDIAVEWESNGQPENNYKTTPPVLDSDGSFFLYSRLTVDKSRWQEGNVFSCSVMHEALHNHYTQKSLSLSLGK
light: B1 light
notes: copies: 2 + 2
B3: anti-CD20 (rituximab) human IgG1 L234T/L235Q/G236R (antibody)
heavy: B1 heavy with Q238T, S239Q, Y256M, T258S, E260T
light: B1 light
notes: EU numbering; also called 2-60; copies: 2 + 2
B4: anti-CD20 (rituximab) human IgG1 L234Q/L235S/G236R/T250Q/M428L (antibody)
heavy: B1 heavy with T254Q, Y256M, T258S, E260T, M432L
light: B1 light
notes: EU numbering; also called 10.146; copies: 2 + 2
B5: anti-CD20 (rituximab) human IgG1 L234S/L235V/G236R (antibody)
heavy: B1 heavy with Q238S, S239V, Y256M, T258S, E260T
light: B1 light
notes: EU numbering; also called 2-53; copies: 2 + 2
B6: anti-CD20 (rituximab) human IgG1 L234S/L235G/G236R (antibody)
heavy: B1 heavy with Q238S, S239G, Y256M, T258S, E260T
light: B1 light
notes: EU numbering; also called 2-47; 1-140; copies: 2 + 2
B7: anti-CD20 (rituximab) human IgG1 L234T/L235S/G236R (antibody)
heavy: B1 heavy with Q238T, Y256M, T258S, E260T
light: B1 light
notes: EU numbering; also called 2-62; copies: 2 + 2
B8: anti-CD20 (rituximab variable regions) rabbit IgG L234Q/L235S/G236R (antibody)
heavy: QVQLQQPGAELVKPGASVKMSCKASGYTFTSYNMHWVKQTPGRGLEWIGAIYPGNGDTSYNQKFKGKATLTADKSSSTAYMQLSSLTSEDSAVYYCARSTYYGGDWYFNVWGAGTTVTVSSGQPKAPSVFPLAPCCGDTPSSTVTLGCLVKGYLPEPVTVTWNSGTLTNGVRTFPSVRQSSGLYSLSSVVSVTSSSQPVTCNVAHPATNTKVDKTVAPSTCSKPTCPPPEQSRGPSVFIFPPKPKDTLMISRTPEVTCVVVDVSEDDPEVQFTWYINNEQVRTARPPLREQQFNSTIRVVSTLPIAHEDWLRGKEFKCKVHNKALPAPIEKTISKARGQPLEPKVYTMGPPREELSSRSVSLTCMINGFYPSDISVEWEKNGKAEDNYKTTPAVLDSDGSYFLYSKLSVPTSEWQRGDVFTCSVMHEALHNHYTQKSISRSPGK
light: QIVLSQSPAILSASPGEKVTMTCRASSSVSYIHWFQQKPGSSPKPWIYATSNLASGVPVRFSGSGSGTSYSLTISRVEAEDAATYYCQQWTSNPPTFGGGTKLEIKRDPVAPSVLLFPPSKEELTTGTATIVCVANKFYPSDITVTWKVDGTTQQSGIENSKTPQSPEDNTYSLSSTLSLTSAQYNSHSVYTCEVVQGSASPIVQSFNRGDC
notes: also called 23.77

Legend:
[1] = molecular target: T1, Human C1q (Sigma Cat. No. 20476), HRP-labelled (human, UniProt P02745 23-245; P02746 28-253; P02747 29-245); assay: ELISA, antibody coated, HRP-C1q; Expt 2, buffer alone 0.051
T1 construct: Coupled to horse-radish peroxidase with Lightning-Link kit; also called HRP-labelled C1q

[2] = molecular target: T1, Human C1q (Sigma Cat. No. 20476), …; assay: ELISA, antibody coated, HRP-C1q; Expt 1, buffer alone 0.053
[3] = molecular target: T2, C-terminus biotinylated human FcRn attached to Streptavidin-SmBiT (FcRn-SAv-SmBiT) (human, UniProt P55899 24-297; P61769 21-119, limits assumed, C-terminus biotinylated (AviTag), attached to Streptavidin-SmBiT); assay: NanoBiT FcRn competition immunoassay, competitor Tracer-LgBiT human IgG, pH 6.0
T2 construct: Kit reagent; also called hFcRn-AviTag

[4] = molecular target: T3, human FcRn (R&D Systems Cat. No. 8639-Fc) (human, UniProt P55899 24-297; P61769 21-119); assay: SPR, FcRn captured; Expt 2
[5] = molecular target: T3, human FcRn (R&D Systems Cat. No. …); assay: SPR, FcRn captured; Expt 1
[6] = molecular target: T1, Human C1q (Sigma Cat. No. 20476), …; assay: ELISA, antibody coated, HRP-C1q; Expt 2, buffer alone 0.091
[7] = molecular target: T1, Human C1q (Sigma Cat. No. 20476), …; assay: ELISA, antibody coated, HRP-C1q; Expt 1, buffer alone 0.061
[8] = molecular target: T3, human FcRn (R&D Systems Cat. No. …); assay: SPR, FcRn captured; Mean
[9] = molecular target: T3, human FcRn (R&D Systems Cat. No. …); assay: SPR, FcRn captured; Expt 3
[10] = molecular target: T1, Human C1q (Sigma Cat. No. 20476), …; assay: ELISA, antibody coated, HRP-C1q; Expt 3, buffer alone 0.102

| Binder | Mean Absorbance [1] | Mean Absorbance [2] | Mean binding activity (% of wild-type reference) [3] | Corrected and normalised response (% of wild-type reference) [4] | Corrected and normalised response (% of wild-type reference) [5] | Mean Absorbance [6] | Mean Absorbance [7] | Corrected and normalised response (% of wild-type reference) [8] | Corrected and normalised response (% of wild-type reference) [9] | Mean Absorbance [10] |
| --- | --- | --- | --- | --- | --- | --- | --- | --- | --- | --- |
| B1 | 0.056 absorbance (450 nm) | 0.052 absorbance (450 nm) | 3940 % of wild-type reference |  |  |  |  |  |  |  |
| B2 | 0.052 absorbance (450 nm) | 0.051 absorbance (450 nm) | 114 % of wild-type reference |  |  |  |  |  |  |  |
| B3 |  |  | 84.7 % of wild-type reference | 96.1 % of wild-type reference | 94.6 % of wild-type reference | 0.077 absorbance (450 nm) | 0.049 absorbance (450 nm) | 95 % of wild-type reference | 94.3 % of wild-type reference |  |
| B4 | 0.062 absorbance (450 nm) | 0.051 absorbance (450 nm) | 650 % of wild-type reference |  |  |  |  |  |  |  |
| B5 |  |  | 94.1 % of wild-type reference |  |  | 0.09 absorbance (450 nm) | 0.072 absorbance (450 nm) |  |  |  |
| B6 |  |  |  | 101 % of wild-type reference | 100 % of wild-type reference | 0.074 absorbance (450 nm) |  | 100 % of wild-type reference | 100 % of wild-type reference | 0.087 absorbance (450 nm) |
| B7 |  |  |  |  |  | 0.067 absorbance (450 nm) | 0.037 absorbance (450 nm) |  |  | 0.119 absorbance (450 nm) |
| B8 | 0.048 absorbance (450 nm) | 0.051 absorbance (450 nm) | 147 % of wild-type reference |  |  |  |  |  |  |  |
